Experimental data from patent US20050265970A1.

Molecular target: GST-MKK7 (GST-JNKK2; human JNKK2 in pGEX-2T) (human) (UniProt O14733)
Assay: in vitro pull-down with purified GST-MKK7 and increasing His6/T7-tagged protein, anti-T7 Western blot; JIP1 under non-saturating conditions

Chain of GST-MKK7 (GST-JNKK2; human JNKK2 in pGEX-2T) (human) (O14733 1-401 Q94H/Q133P): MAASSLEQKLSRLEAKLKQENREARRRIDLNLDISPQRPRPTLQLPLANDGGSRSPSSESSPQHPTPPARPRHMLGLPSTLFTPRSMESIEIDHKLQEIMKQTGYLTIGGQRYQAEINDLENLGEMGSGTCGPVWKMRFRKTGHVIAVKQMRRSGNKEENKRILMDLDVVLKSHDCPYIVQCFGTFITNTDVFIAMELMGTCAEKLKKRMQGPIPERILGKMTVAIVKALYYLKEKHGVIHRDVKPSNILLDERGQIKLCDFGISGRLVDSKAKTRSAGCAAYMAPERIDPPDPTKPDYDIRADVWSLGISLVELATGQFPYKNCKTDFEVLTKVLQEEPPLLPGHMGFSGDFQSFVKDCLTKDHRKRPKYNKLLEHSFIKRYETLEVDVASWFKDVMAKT

half maximum binding (HMB): > 650 nM
Substance: His6/T7-JIP1 (MKK7-binding domain of JIP1b, pET28)
